In publication PMC4588518:

Target: LegK4^1–445 (Legionella pneumophila LegK4, residues 1 to 445) (Legionella pneumophila)
Assay: SEC-SAXS

Substance: LegK4^1–445 (Legionella pneumophila LegK4, residues 1 to 445) (domain or fragment)
- stoichiometry N: 2
